Key:
[1] = target: interleukin-1 (IL-1) receptor on human cells (human) (UniProt P14778); assay: cell-based or functional assay
[2] = target: T1, bovine serum albumin (BSA) (bovine, UniProt P02769 25-607); assay: FACS on human fibroblast cells (CCD 1089)
T1 construct: also called non-related protein
Method: A cell binding assay was carried out, in a modification of the procedure as described above in Example 7.1, to determine if IL-1 Hy2 of the invention binds to the interleukin-1 (IL-1) receptor. Briefly, fluorescent activated cell sorting (FACS) was used to measure cell binding of the recombinant protein (see Example 6) using fluorescent antibodies specific for the express tag on the IL-1 Hy2 recombinant protein. In each reaction, 10⁶ cells of human fibroblast cells (CCD 1089) were suspended in 100 μl of FACS buffer (containing distilled PBS, 3% calf serum and 0.01% azide). Cell binding reactions included 5 nM recombinant IL-1 Hy2 in 100 μl cell suspension. The cells were incubated on ice for one hour. The cells were pelleted by centrifugation, 200 μl of 0.2 mM BS3 (crosslinker) was added, and the cells were kept on ice for 30 minutes. Next, 10 μl […] pH 7.5 was added and the cells were incubated for 15 minutes on ice. The cells were pelleted by centrifugation, washed one time in FACS buffer, resuspended in 100 μl volume of FACS buffer, 2 μl primary antibody (anti-express tag antibody 1 mg/ml) was added, and incubation continued on ice for an additional 30 minutes. […] The cells were again pelleted by centrifugation, washed two times with FACS buffer, resuspended in 0.5 ml FACS buffer and analyzed on FACS.

T1 sequence (P02769 25-607 limits assumed): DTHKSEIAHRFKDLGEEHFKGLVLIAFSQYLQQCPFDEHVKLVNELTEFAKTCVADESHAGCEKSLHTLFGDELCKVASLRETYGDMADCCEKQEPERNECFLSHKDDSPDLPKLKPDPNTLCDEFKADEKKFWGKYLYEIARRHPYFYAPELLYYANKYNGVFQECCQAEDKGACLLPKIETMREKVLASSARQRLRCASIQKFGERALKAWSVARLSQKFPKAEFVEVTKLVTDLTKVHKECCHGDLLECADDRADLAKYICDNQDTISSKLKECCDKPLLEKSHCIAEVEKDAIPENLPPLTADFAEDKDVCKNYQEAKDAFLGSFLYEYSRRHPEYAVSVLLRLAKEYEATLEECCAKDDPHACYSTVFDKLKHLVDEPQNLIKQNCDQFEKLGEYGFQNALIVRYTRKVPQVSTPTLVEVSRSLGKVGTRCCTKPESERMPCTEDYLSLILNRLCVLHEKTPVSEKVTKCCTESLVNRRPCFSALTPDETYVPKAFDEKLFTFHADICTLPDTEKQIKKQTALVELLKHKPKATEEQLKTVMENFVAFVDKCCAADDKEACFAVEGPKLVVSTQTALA

Molecule | inhibition of IL-1β induced PGE2 production, human fibroblasts (CCD 1098), 1 ng/ml IL-1β, IL-1 Hy2 at 1000 fold excess, PGE2 ELISA [1] | binding result [2]
IL-1 Hy2 (preparation used in the cell-based activity assays) (from UniProt Q8WWZ1 1-152) (ligand) | 40 to 60% | 
interleukin-1 (IL-1) receptor on human cells (receptor, UniProt P14778 18-569, looked up, whole, on cells) LEADKCKEREEKIILVSSANEIDVRPCPLNPNEHKGTITWYKDDSKTPVSTEQASRIHQHKEKLWFVPAKVEDSGHYYCVVRNSSYCLRIKISAKFVENEPNLCYNAQAIFKQKLPVAGDGGLVCPYMEFFKNENNELPKLQWYKDCKPLLLDNIHFSGVKDRLIVMNVAEKHRGNYTCHASYTYLGKQYPITRVIEFITLEENKPTRPVIVSPANETMEVDLGSQIQLICNVTGQLSDIAYWKWNGSVIDEDDPVLGEDYYSVENPANKRRSTLITVLNISEIESRFYKHPFTCFAKNTHGIDAAYIQLIYPVTNFQKHMIGICVTLTVIIVCSVFIYKIFKIDIVLWYRDSCYDFLPIKASDGKTYDAYILYPKTVGEGSTSDCDIFVFKVLPEVLEKQCGYKLFIYGRDDYVGEDIVEVINENVKKSRRLIIILVRETSGFSWLGGSSEEQIAMYNALVQDGIKVVLLELEKIQDYEKMPESIKFIKQKHGAIRWSGDFTQGPQSAKTRFWKNVRYHMPVQRRSPSSKHQLLSPATKEKLQREAHVPLG |  | no binding (tested: same molarity as IL-1 Hy2 (5 nM))
